Earlier results in PMC10382592.

Biological target: Cys23 (UniProt position 23, FIKPTCPYCRR)

Substance: Glutaredoxin-1 (GLRX, thioltransferase) (Homo sapiens (inferred from the title of ref 11, 'Thiotransferase in human red blood cells'; the sentence itself refers to mammalian GLRX))
- pKa: approximately 3.5
